Assay results from the supplement of paper PMC12042874.
± gives the uncertainty stated by the source.

assay: amyloid nucleation score (Sup35N fusion, yeast selection) (log enrichment); library NNK1; higher = more nucleation; inactive = no reads after selection
In short: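 In psi-negative yeast, Sup35N fusions carrying peptides of 20 random codons were induced with 100 μM copper sulfate for 24 hours. The cells then grew 7 days at 30°C on medium lacking adenine and uracil, and plasmid inserts from input and output were Illumina-sequenced, excluding sequences with under 100 input reads. Nucleation score is the DiMSum log enrichment of output over input reads, centred on the mode score of non-aggregating sequences.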

Row | Substance | amyloid nucleation score
1 | CCDSPSRRSRAKECRMKYSM | -1.32 ± 1.2
2 | FEYFCRRDRLTK | -0.209 ± 0.25
3 | GGILPLTCSFVRTSIDQIGG | -0.154 ± 0.41
4 | NVRDLSMISLGAEVWGRIAV | 0.619 ± 0.81
5 | SVCVCLTIGCDFSIESVRCN | 2.64 ± 0.32
6 | PAMLPLTAMFLLHGRYVLTP | -0.384 ± 0.8
7 | LRELSVCWPT | -0.153 ± 0.44
8 | HPGMTSAASVCWFHGRVLTL | 0.494 ± 0.51
9 | RCTGLRLRVLGAILIFIHYV | inactive
10 | FFWCRSRLTLAF | 0.024 ± 0.35
11 | DEPLNTMRSYACWSSDSSHP | 0.139 ± 0.48
12 | FVEVVRTLEQI | -0.485 ± 1
13 | EIWPFMPRDHPMNALIYVSR | 1.34 ± 0.39
14 | SCNHKNSRSHLALQS | 1.6 ± 0.44
15 | SRWGPRL | -0.494 ± 0.71
16 | VPRYGTLEGANESDLFGW | 0.282 ± 0.78
17 | KSIRVNTMHRC | 2.19 ± 0.3
18 | ELLMERMRQLVFPPIIYRLN | 0.44 ± 0.62
19 | IVWSYSRTIYLNFI | 0.873 ± 0.68
20 | VVSSAEQVHLGVVNGRRFLL | -0.003 ± 0.74
21 | TQEVLLFPGGCYNPFAFGWS | -0.647 ± 0.75
22 | FFIYPWFRMTFERRLDGELG | 1.62 ± 0.27
23 | SCRRYSYKCSVL | -0.16 ± 1.4
24 | ICNQCNNSGTQLYCIKLYMR | 6.099 ± 0.045
25 | FAHTLGA | 0.333 ± 0.79

Row | Substance | amyloid nucleation score
26 | IRGNSKGMGQREFISPFPAR | -1 ± 0.35
27 | FYFTHRFRITVRYSVLVMRT | 1.69 ± 0.51
28 | RRRHWVSSAGGKRRHLVFCA | 1.22 ± 0.46
29 | VMCAT | -0.048 ± 0.59
30 | SLVWVCFWGICI | 6.67 ± 0.088
31 | SYLGSAAIYVCLAGRPSGQR | -0.725 ± 1.2
32 | SVWLANCYGKYMGVVCYSKV | 0.537 ± 0.32
33 | GKRGSTQDEAKR | inactive
34 | RVSLSCIMKIYNFDKRVWLG | 0.521 ± 0.97
35 | RILCHLTNRWFEFDEVLVGV | 0.835 ± 0.48
36 | NRRSSKLIN | inactive
37 | FVQWFASSCCIRPRRYFVSR | -1.42 ± 1.6
38 | FFTCNGWAGS | -0.614 ± 0.38
39 | MWVCSYA | inactive
40 | LVGRSFSCEPRLYTFCEFCG | 2.61 ± 0.18
41 | HSAGVVDALRCYNFYV | -0.102 ± 0.39
42 | GAFGFITNRKRINCKLEDRD | -1.32 ± 2.4
43 | DRVSCNEEFQRKCIFTVIRR | 1.19 ± 0.63
44 | IFFCWTMFRS | 1.28 ± 0.21
45 | WGMWSGLLFGEFWCS | -0.424 ± 0.71
46 | VTVFEILWGMTT | inactive
47 | CLSYIVVALVRCTDIYYP | 0.763 ± 0.42
48 | FKVKIVKCLGMFLLTIASLL | 1.07 ± 0.39
49 | VRTLRTLAGLRRLLINKS | -0.137 ± 0.54
50 | MVAIMQISMGSAVFLYAR | 4.24 ± 0.097

Row | Substance | amyloid nucleation score
51 | NLRQVCNSAFVVGSVIFFWV | -0.318 ± 0.69
52 | KRVSRNPNPGVV | -0.076 ± 0.56
53 | GYLCLGSCNRSVSLLSSTGS | 0.407 ± 0.47
54 | VFLWDSHV | -0.505 ± 0.39
55 | PGPRVNHTRCVM | 1.52 ± 0.85
56 | SDGRNHTANYPWG | -0.182 ± 0.65
57 | CNTPSTCNCVIVRPSYPSQY | -0.088 ± 0.61
58 | GLMLDLFVSSVYSIT | 0.655 ± 0.42
59 | CFVFLFFVPLWSRNRGEYMY | -0.937 ± 0.68
60 | FNSGNQ | -0.442 ± 0.37
61 | DRATGISEAVEWHGRWVGKN | -0.534 ± 0.83
62 | CMDRSLMVNNTRPYGCLLEY | 6 ± 0.061
63 | LSMGAHSGGPLQSY | -0.205 ± 1.1
64 | TFGSETESMLNTKYSSGCVG | 0.067 ± 0.55
65 | AFLCESFSLVWYWLLWEWRW | -0.126 ± 0.77
66 | DAEFRHGAIIGLMVGGVVIA | 3.45 ± 0.22
67 | RDVCLQSGMVVFYF | 6.905 ± 0.061
68 | VYSMVFLMPCNRHDSFGRYS | 6.578 ± 0.056
69 | GSMMWSMTADKLKFAGSVVC | 0.889 ± 0.54
70 | LTDLLMFIVPWDNAQRLVCF | 0.518 ± 0.89
71 | LFLKRGPSCTCLLRKSTIEH | 0.182 ± 0.69
72 | CFIRLNNWLF | 1.59 ± 0.46
73 | YLFQAGQDTRLLIC | 0.236 ± 0.63
74 | KMIDICPFIHWSQSSTPSRA | 0.018 ± 0.67
75 | LYLFDPTNQKRFEVWKWK | 0.063 ± 0.49

Row | Substance | amyloid nucleation score
76 | AFFNCPSTNTVWQRFNANRF | 1.72 ± 0.14
77 | NTQRTLIFSPMFVSRRLNLA | 2.64 ± 0.16
78 | EGLARCQCLCLTRVIYVESA | -0.403 ± 1.4
79 | HSNCVDSRCETARTS | 1.47 ± 0.47
80 | LNFCSVRVMEEISMVWCMVF | 4.24 ± 0.11
81 | PLLYLPNWLISCFYLLF | 0.263 ± 0.53
82 | ENRQIWCANGNVVGGTALGV | 0.734 ± 0.69
83 | TTFFDLT | 0.713 ± 0.74
84 | DACIGWVRYRSILCCMVLVA | -0.005 ± 1.7
85 | VFNTVVS | -0.161 ± 0.41
86 | YRGMGTTPKFT | 0.356 ± 1
87 | NGCFIAFLTMFTYFTCTRVS | -0.76 ± 0.8
88 | NYTTSMNPLHFVACK | inactive
89 | LFIDVSR | -0.021 ± 1.6
90 | DSWYRLLLARACNISHVRGR | -0.527 ± 0.48
91 | EAFYFRLRKLFDRNPGGEGT | 0.621 ± 0.32
92 | NFKNKIMGALS | -0.548 ± 2.1
93 | SETFEHRLRD | -0.437 ± 0.28
94 | CLCVGDDGGADWNKVRVITS | 0.18 ± 0.61
95 | HLYDC | inactive
96 | GSSFGFDYFDAHPMYLVTSY | 1.37 ± 0.48
97 | TLSSRSYC | 0.402 ± 0.33
98 | YAFDMRMENTQVRYHVPLII | 0.292 ± 0.73
99 | TFCCIVSFF | 7.199 ± 0.049
100 | INVPIWGNLQDWLVI | -0.924 ± 0.52

Row | Substance | amyloid nucleation score
101 | RFFGFS | -0.63 ± 1.1
102 | MFVNPALLLFL | 0.226 ± 1.6
103 | IDWTVDKRSKLMYRGKGSVA | -0.306 ± 0.97
104 | CRDNCCPLVVYW | 0.531 ± 0.33
105 | IRKHLDPGPSYRSSYLRGW | inactive
106 | NRIFCLYSFCCFHENWVGLY | 4.96 ± 0.095
107 | LALLWDMPF | -2.19 ± 2.7
108 | DCISRLWR | -0.83 ± 0.89
109 | TLLMRSEGYLFYYAPSLSLV | -0.494 ± 0.44
110 | KSHIIFSIWQRLFGGHRISK | 0.413 ± 0.58
111 | VLTTS | -0.086 ± 0.26
112 | VVARYYIQLFDRRDRN | 6.678 ± 0.065
113 | NLHFVGTCHTFSSAYNRRET | -0.95 ± 2.7
114 | SNSRGYSWRDTGTNLRGYPE | -0.238 ± 1.5
115 | NIGNVMRSCSKVYSLSLKQL | 0.585 ± 0.31
116 | IGARQLSFLHSIRTREMRVQ | inactive
117 | RKRSSRVIDVTGRWAVLTYP | 0.074 ± 0.46
118 | GDAMASFPAACCGTRCCGFV | 0.41 ± 0.4
119 | MFYLTFYNLRIND | 6.01 ± 0.061
120 | PTSLLLGINYCLFWSIYLRD | 1.81 ± 0.16
121 | YKFKGSFVSIRQGAEVGYSA | -0.361 ± 0.69
122 | LKSSNVPTRNVMRYMPSAFE | -0.292 ± 0.59
123 | AVIFVVLKMSFSISECDDEW | inactive
124 | LDIRVCRLPRSVFNR | -0.002 ± 1
125 | FCRFQDR | -0.785 ± 0.64

Row | Substance | amyloid nucleation score
126 | DFLIAVMEQSMAQFKGHSSD | 0.071 ± 1.2
127 | TFLYKKLTFEVVWGCLIASE | -0.041 ± 0.84
128 | ISRWMSVDLCLPKLATGTVS | -0.083 ± 0.4
129 | YHVYSVRSNVWALLKIRLV | 1.14 ± 0.58
130 | CCSPAPLSLVIIVATVGVAS | 2.04 ± 0.19
131 | YMEKWAWRVVNESCASVVPP | -0.272 ± 0.89
132 | TMRSNRLFRICFCLGKKYWL | -0.562 ± 0.33
133 | RHWDIRSGHNLWQMVG | -0.55 ± 0.38
134 | NLECFTCFFLYTIDMNLKP | 4.94 ± 0.053
135 | KRDFVSRLDESPN | -0.873 ± 1.1
136 | IGRMIRVCYVVCYEVDMTTS | 0.725 ± 0.47
137 | FKTYYLATLDTNS | -1.73 ± 2.4
138 | RSMSTIRIEGSESTSFISS | -0.812 ± 1.7
139 | TYRFGCTLPLLRMCFIP | 0.435 ± 0.71
140 | RPLALRVQDSPKSFGQSP | 0.145 ± 0.7
141 | FRRVVNVSCTLTHSWIILLM | 0.042 ± 1.1
142 | MPRLTDRDKLCDFVNLQFIF | 6.7 ± 0.073
143 | NIYVGSYTLYTTN | 5.386 ± 0.047
144 | NWHVGIIGWRCMGHTQKYVN | 0.038 ± 0.22
145 | SECYFSVWFANTALQNRV | 0.034 ± 0.4
146 | YNIVPSADWVSWHGRLTGRR | 1.42 ± 0.61
147 | FAQWDNLSARSLKGDQRESA | 0.302 ± 0.52
148 | NLLYTY | 1 ± 0.53
149 | LSSLGDLLLMNQPNAQRLTY | -0.746 ± 1
150 | LVNRVKRCAMNVHLSIGGDR | -0.479 ± 0.44

Row | Substance | amyloid nucleation score
151 | LRYFDLVATNHDNMIYDQYL | -0.177 ± 0.68
152 | SDFLTWCDQSLRCVDRYPNA | 0.648 ± 0.97
153 | TSSVGMWGQWYSRWNSRKCN | -0.573 ± 1.7
154 | CWASRSSCSLLYVRVVMRHC | 0.371 ± 0.57
155 | RISYTDCMVEQLHPNQLWQN | -0.069 ± 0.52
156 | VIQEPKFMYLQLFVGLPCVS | 4.51 ± 0.09
157 | GFNLAW | -0.547 ± 0.56
158 | CDLFDFCISSKCRFKFLGRM | -0.131 ± 0.9
159 | LMRRAAVFFAGSRAGSRCLT | -0.675 ± 0.4
160 | TIFLSF | -0.284 ± 0.27
161 | TSNSS | -1.07 ± 0.52
162 | YNVGLLGLFRCYAQKVGLWE | inactive
163 | YGVNLPALLFKYAISGSLVG | 1.03 ± 0.53
164 | YTGKRKT | -0.5 ± 0.46
165 | DNGGSAVQEDQVLAWSTGEQ | 0.874 ± 0.23
166 | VNQDAGDMKSVRKRAMTRLC | 1.06 ± 0.56
167 | RLGCGSM | 0.769 ± 0.45
168 | LAMFHSWGVGFATLGVKISE | 1.04 ± 0.78
169 | CWKLETYTSTDSQVGQANLK | -1.28 ± 0.96
170 | RQNGRKDPGNVKRGITCR | 0.066 ± 0.38
171 | IRAQGHNYWALMRVAEWVVG | 1.75 ± 0.42
172 | WPWHEHEQKWDKLCMLSWKR | inactive
